# Experimental data from patent US20190367592A1 (AC IMMUNE, published 2019).
# Where no end group is shown, it is not given here.
# T1: MAPT(2-24) (human, biotinylated)
# T1 construct: also called Tau fragment 2-24
# T1 peptide: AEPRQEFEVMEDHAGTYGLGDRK
# T2: MAPT(2-34) (human, biotinylated)
# T2 construct: also called Tau fragment 2-34
# T2 peptide: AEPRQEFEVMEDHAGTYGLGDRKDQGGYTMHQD
# T3: MAPT(10-24) (human, also: biotinylated, site not given here)
# T3 construct: also called Tau fragment 10-24
# T3 peptide: VMEDHAGTYGLGDRK
# Tests used:
# [1] = biological target: T4, recombinant human Tau monomer, 2N4R isoform (amino acids 2-441) (human, UniProt P10636-8 2-441); assay: SPR, hIgG captured, Tau monomer analyte; mean of four
# T4 construct: range 2-441; N-terminal His-tag removed with TEV protease; also called monomeric Tau
# Method: Affinity was assessed at 25° C. using a Biacore T200 instrument, the GE Biacore human IgG capture kit and a CM5 Series S chip. The hIgG were diluted to 2 μg/ml in 10 mM HEPES pH7.4, 150 mM NaCl, 0.05% Tween 20 (running buffer, HBSP) and captured at a flow rate of 10 μl/min for 22 seconds. […] Between cycles the surface was regenerated using a 30 second injection of 3M Magnesium Chloride at 10 μl/min. A 1:1 binding model was fitted to the data and affinities for hu37D3-H9.v5 and hu37D3-H9.v5.3 (also referred to herein as hu37D3-H9.v5 N28D) calculated using kinetic analysis. Parameters used for the 1:1 fitting included the Instrument default of local fitting for the “RI” parameter.
# [2] = biological target: T4, recombinant human Tau monomer, 2N4R …; assay: SPR, hIgG captured, Tau monomer analyte, 1:1 fit
# Method: Affinity of selected antibodies was assessed at 25° C. using a Biacore T200 instrument, the GE Biacore human IgG capture kit and a CM5 Series S chip. The hIgG were diluted to 0.25 μg/ml in 10 mM HEPES pH7.4, 150 mM NaCl, 0.05% Tween 20 (running buffer, HBSP) and captured at a flow rate of 10 μl/min for 150 seconds. Kinetic data was collected for Human Tau monomer injected at concentrations of 0, 0.4, 1.2, 3.7, 11, 11, 33 and 100 nM in HBSP, using a flow rate of 30 μl/min, a 300 second association phase and a 600 second dissociation phase. Between cycles the surface was regenerated using two sequential 30 second injections of 3M MgCl at 10 μl/min. Data was fit to a 1:1 binding model (Table 15).
# [3] = biological target: T1, MAPT(2-24); assay: ELISA, biotinylated peptide on Neutravidin plate, IgG titrated, A450 nm
# Method: (§1) Following a comparison of 37D3-H9 binding to biotinylated Tau monomer and biotinylated peptide (MAPT_10-24), binding of 37D3-H9 to additional biotinylated peptides was also assessed. Nunc maxisorp 96-well microplates were coated at 4° C. for >12 hours with Neutravidin diluted to 2 μg/ml in 50 mM Sodium Carbonate Buffer, pH 9.6. All subsequent incubations were performed at room temperature. After coating, plates were blocked with Superblock™ (PBS) Blocking Buffer (Thermo Fisher Scientific) for two hours then washed thoroughly with PBS, 0.05% Polysorbate 20. Wells were then exposed to biotinylated Tau peptides (Table 20) or Avi-tag biotinylated Tau monomer at 1 μg/ml for one hour and washed as previously. Peptides were synthesized using standard solid-phase Fmoc chemistry (see, e.g., Fmoc solid phase peptide synthesis: A practical approach; Chan, W. C., White, P. D., Eds.; Oxford University Press: New York, 2000). Antibodies 37D3-H9 mIgG2a and hu37D3-H9.v5 hIgG1, serially diluted from 500 nM to 50 pM in 90% Superblock™ (PBS) Blocking Buffer, were allowed to bind biotinylated-Tau coated wells for 90 minutes. Wells were washed as previously and bound antibody detected with peroxidase-conjugated secondary antibody (Invitrogen/Life Technologies) diluted 1/1000 in Superblock™ Blocking Buffer (Rabbit anti-Mouse IgG or Goat Anti-Human IgG (H+L) respectively). After twenty minutes wells were washed as previously and signal developed with TMB Microwell 2-Component Substrate (KPL). Reactions were stopped by addition of 1M Phosphoric Acid and absorbance at 450 nm was measured with a SpectraMax M2 platereader.
# [4] = biological target: T2, MAPT(2-34); assay: as above
# Method: as §1
# [5] = biological target: T3, MAPT(10-24); assay: as above
# Method: as §1
# [6] = biological target: T4, recombinant human Tau monomer, 2N4R …; assay: SPR, captured IgG, Tau monomer analyte, 1:1 model; fit-quality column: Yes
# How it was run: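 SPR read-out: Rmax divided by captured-IgG Ligand Level gives Normalized Rmax; post-stress (40° C., 2 weeks) over pre-stress (~4° C.) value is the Stability Index. Tau analyte at 0, 26.5, 265 nM, 180 s association, 300 s dissociation, multi-cycle kinetics, 1:1 model.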
# Target sequence in this assay (P10636 other isoform, or with tags, fused parts or gaps limits assumed): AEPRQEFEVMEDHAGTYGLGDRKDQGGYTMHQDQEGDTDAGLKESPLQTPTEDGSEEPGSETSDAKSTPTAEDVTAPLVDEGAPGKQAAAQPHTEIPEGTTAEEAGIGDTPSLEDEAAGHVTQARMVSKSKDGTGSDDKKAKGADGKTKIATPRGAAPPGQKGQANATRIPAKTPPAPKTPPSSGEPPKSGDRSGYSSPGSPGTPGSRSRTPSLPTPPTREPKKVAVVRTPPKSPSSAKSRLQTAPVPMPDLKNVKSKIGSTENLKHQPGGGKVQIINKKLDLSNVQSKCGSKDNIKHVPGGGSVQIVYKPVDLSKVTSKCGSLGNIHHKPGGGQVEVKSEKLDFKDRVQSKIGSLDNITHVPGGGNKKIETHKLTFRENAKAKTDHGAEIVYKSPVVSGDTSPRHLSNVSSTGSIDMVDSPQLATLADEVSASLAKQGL
# [7] = biological target: T4, recombinant human Tau monomer, 2N4R …; assay: SPR, hIgG captured, Tau monomer analyte; unstressed sample
# Method: To assess the impact of N²⁸ deamidation on the affinity for human Tau, it was desirable to obtain two samples with widely separated N²⁸ deamidation status. Hu37D3-H9.v5 hIgG4.S228P was incubated at 40° C. for two weeks at a concentration of 1 mg/ml in Phosphate Buffered Saline, pH 7.4. Deamidation of the N²⁸G2⁹ motif was measured using LC-MS/MS. […] The stressed and unstressed antibodies were analyzed for Tau binding by surface plasmon resonance (Biacore) using the GE Biacore human IgG capture kit and a Series S CM5 chip. The hIgG were diluted to 2 μg/ml in 10 mM HEPES pH7.4, 150 mM NaCl, 0.05% Tween 20 (running buffer, HBSP) and captured at a flow rate of 10 μl/min for 15 seconds (t0 sample) or 17 seconds (t2 sample). […] Between cycles the surface was regenerated using a 30 second injection of 3M Magnesium Chloride at 10 μl/min. A 1:1 binding model was fitted to the data using instrument defaults, including local fitting of the “RI” parameter.
# [8] = biological target: T4, recombinant human Tau monomer, 2N4R …; assay: SPR, hIgG captured, Tau monomer analyte; stressed sample
# [9] = biological target: T4, recombinant human Tau monomer, 2N4R …; assay: SPR, hIgG captured, Tau monomer analyte; control sample
# [10] = biological target: T4, recombinant human Tau monomer, 2N4R …; assay: SPR single-cycle, Tau monomer amine-coupled, Fab analyte; Fab, not IgG; Tau monomer on the chip
# Method: Human monomer Tau protein was covalently coupled to a Biacore Series S CM5 chip using the Biacore Amine Coupling Kit (GE Life Sciences), resulting in immobilization to a level of approximately 128 RU. Direct binding of 37D3-H9 in both Fab and IgG formats was monitored using the single-cycle kinetics experimental format with five association periods of 300s each and antibody concentrations of 1, 2, 4, 8 and 16 nM (IgG) or 5, 10, 20, 40 and 80 nM (Fab). Dissociation was monitored for 7200 seconds (Fab) or for 14400 seconds (IgG). A value for the dissociation rate was calculated by fitting a 1:1 binding model to the data.
Kd [1] [nM],Kd [2] [nM],koff [2] [s⁻¹],kon [2] [M⁻¹ s⁻¹],binding result [3],binding result [4],binding result [5],Kd [6] [nM],Kd [7] [nM],Kd [8] [nM],Kd [9] [nM],koff [10] [s⁻¹],Binder
1.5,1,0.0008,750000,binds,binds,binds,1,,,,,"hu37D3-H9.v5 hIgG1 (antibody, V domains shown, human IgG1, kappa) VH: EVQLVESGGGLVQPGGSLRLSCAASGLIFRSYGMSWVRQAPGKGLEWVATINSGGTYTYYPDSVKGRFTISRDNSKNTLYLQMNSLRAEDTAVYYCANSYSGAMDYWGQGTLVTVSS VL: EDVLTQTPLSLPVTPGQPASISCRSSQSIVHSNGNTYFEWYLQKPGQSPQLLIYKVSNRFSGVPDRFSGSGSGTDFTLKISRVEAEDVGVYYCFQGSLVPWTFGQGTKVEIK"
,1.3,0.0009,710000,,,,,0.7,1.5,1.5,,"hu37D3-H9.v5 hIgG4.S228P (antibody, V domains shown, human IgG4 S228P, kappa; the t = 2 weeks sample is partly deamidated at light chain N28) VH: EVQLVESGGGLVQPGGSLRLSCAASGLIFRSYGMSWVRQAPGKGLEWVATINSGGTYTYYPDSVKGRFTISRDNSKNTLYLQMNSLRAEDTAVYYCANSYSGAMDYWGQGTLVTVSS VL: EDVLTQTPLSLPVTPGQPASISCRSSQSIVHSNGNTYFEWYLQKPGQSPQLLIYKVSNRFSGVPDRFSGSGSGTDFTLKISRVEAEDVGVYYCFQGSLVPWTFGQGTKVEIK"
,,,,,,,,,,,0.0005,"37D3-H9 Fab (Fab, V domains shown, Fab format) VH: EVQLVESGGDLAKPGGSLKLSCTASGLIFRSYGMSWVRQTPDKRLEWVATINSGGTYTYYPDSVKGRFTISRDNAKNTLYLQMSSLKSEDTAMYYCANSYSGAMDYWGQGTSVTVSS VL: DDLLTQTPLSLPVSLGDPASISCRSSQSIVHSNGNTYFEWYLQKPGQSPKLLIYKVSNRFSGVPDRFSGSGSGTDFTLKISRVEAEDLGVYYCFQGSLVPWTFGGGTKLEIK"
